{"source": "paper PMC11870394", "about": "(bioRxiv, 2025)", "binders": {"B1": {"name": "RSV-2245 Fab (Fab, V domains shown)", "VH": "QVQLVQSGAEVKKPGASVKVSCKASGYSFSSFGVSWVRQAPGQGLEWLGWISAYNGNTDYAQKVQGRLTMTTDTSTNTAYMELRNLRSDDTAVYYCARDPPASAAAMFDYWGQGTLVTVSS", "VL": "not shown"}, "B2": {"name": "RSV-3301 Fab (Fab, V domains shown)", "VH": "QVQLVESGPTLVKPTQTLTLTCSFSGFSLSTRGVGVGWVRQPPGKALECLGFTYWDGDEYYSPSLRNRVTISKDTSKNQVVLTLTNMDPVDTATYFCVHSDLYDRGGYYLYYFDYWGQGTLVTVSS", "VL": "DIRVTQSPSSLSASVGDRVTITCRASQTIASYVNWYQQKPGRAPELLIYAASILQSGVPSRFSGRGSGTDFTLTINGLQPEDFATYYCQQSYSSPWTFGQGTKVEIK"}}, "molecular_target": "RSV prefusion F (PR-DM) (respiratory syncytial virus A, UniProt P03420)", "assay": "cryo-EM structure", "data": [{"binder": "B1", "values": [{"measurement": "stoichiometry N", "result": 3, "unit": "Fab per F trimer"}]}, {"binder": "B2", "values": [{"measurement": "stoichiometry N", "result": 3, "unit": "Fab per F trimer"}]}]}
